Experiments:
[1] = target: T1, human DLL1 on 293T-hDLL1 cells (human, UniProt O00548 18-723); assay: flow cytometry on HEK293T-hDLL1 cells
T1 construct: whole, on cells; also called 293T-DLL1; HEK293T-hDLL1
T1 sequence (looked up): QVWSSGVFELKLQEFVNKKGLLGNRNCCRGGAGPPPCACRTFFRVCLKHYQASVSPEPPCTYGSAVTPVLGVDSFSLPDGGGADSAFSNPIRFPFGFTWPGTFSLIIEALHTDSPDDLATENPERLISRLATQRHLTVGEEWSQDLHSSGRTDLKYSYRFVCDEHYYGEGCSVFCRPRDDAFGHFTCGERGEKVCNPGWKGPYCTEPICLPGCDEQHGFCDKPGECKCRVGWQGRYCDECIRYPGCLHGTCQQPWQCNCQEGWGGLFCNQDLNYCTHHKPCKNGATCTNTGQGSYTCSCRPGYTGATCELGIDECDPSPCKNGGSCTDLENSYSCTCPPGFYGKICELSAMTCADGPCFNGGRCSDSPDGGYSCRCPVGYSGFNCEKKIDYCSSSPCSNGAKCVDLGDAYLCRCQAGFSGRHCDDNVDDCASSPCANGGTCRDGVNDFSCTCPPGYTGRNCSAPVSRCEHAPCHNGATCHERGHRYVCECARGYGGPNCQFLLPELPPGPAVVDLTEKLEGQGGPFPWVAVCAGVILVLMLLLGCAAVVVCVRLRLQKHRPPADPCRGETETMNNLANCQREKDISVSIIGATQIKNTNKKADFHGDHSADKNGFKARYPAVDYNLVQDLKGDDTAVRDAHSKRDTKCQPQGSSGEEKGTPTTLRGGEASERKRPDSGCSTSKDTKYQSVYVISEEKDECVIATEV

[2] = target: T2, recombinant extracellular domain protein of cynomolgus monkey DLL3 (cyno.DLL3-ECD-His) (cynomolgus monkey, UniProt A0A2K5WSR1 27-490); assay: BLI (ForteBio), antibody on ProA sensor, cynoDLL3-ECD-His in solution
T2 construct: extracellular domain; Commercial protein; not shown: His tag
T2 sequence: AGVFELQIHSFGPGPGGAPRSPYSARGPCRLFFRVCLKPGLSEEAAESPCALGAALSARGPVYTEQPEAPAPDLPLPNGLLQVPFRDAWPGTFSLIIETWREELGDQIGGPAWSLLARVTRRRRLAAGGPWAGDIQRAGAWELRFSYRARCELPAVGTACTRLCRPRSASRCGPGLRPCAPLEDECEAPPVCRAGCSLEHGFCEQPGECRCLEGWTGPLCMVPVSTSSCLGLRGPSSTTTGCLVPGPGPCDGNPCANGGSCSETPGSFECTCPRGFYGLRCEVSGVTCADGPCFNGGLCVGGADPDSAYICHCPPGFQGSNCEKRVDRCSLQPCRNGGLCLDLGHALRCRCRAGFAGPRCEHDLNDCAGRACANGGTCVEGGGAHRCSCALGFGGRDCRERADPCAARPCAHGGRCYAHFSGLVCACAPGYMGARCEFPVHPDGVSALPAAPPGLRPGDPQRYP

[3] = target: T3, recombinant extracellular domain protein of human DLL3 (h.DLL3-ECD-His) (human, UniProt Q9NYJ7 27-492); assay: ELISA, coated h.DLL3-ECD-his 0.2 µg/mL, antibody titrated
T3 construct: extracellular domain; Commercial protein; also called human DLL3 antigen; not shown: His tag
T3 sequence (looked up): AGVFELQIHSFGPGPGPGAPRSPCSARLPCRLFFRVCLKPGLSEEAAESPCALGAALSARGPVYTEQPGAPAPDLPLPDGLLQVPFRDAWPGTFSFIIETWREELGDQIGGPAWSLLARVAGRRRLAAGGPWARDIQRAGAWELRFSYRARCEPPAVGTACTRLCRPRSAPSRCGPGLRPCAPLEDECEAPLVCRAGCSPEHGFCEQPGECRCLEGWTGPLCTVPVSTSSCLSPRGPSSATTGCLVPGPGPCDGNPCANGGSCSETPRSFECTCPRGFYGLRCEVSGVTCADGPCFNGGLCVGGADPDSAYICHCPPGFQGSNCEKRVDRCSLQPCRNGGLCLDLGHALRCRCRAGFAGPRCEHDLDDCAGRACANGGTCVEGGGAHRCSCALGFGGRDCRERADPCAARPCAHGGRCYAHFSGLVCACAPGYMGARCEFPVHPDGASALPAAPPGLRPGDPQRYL

[4] = target: T4, human DLL4 on 293T-hDLL4 cells (human, UniProt Q9NR61 27-685); assay: flow cytometry on HEK293T-hDLL4 cells
T4 construct: whole, on cells; also called 293T-DLL4; HEK293T-hDLL4
T4 sequence (Q9NR61 27-685): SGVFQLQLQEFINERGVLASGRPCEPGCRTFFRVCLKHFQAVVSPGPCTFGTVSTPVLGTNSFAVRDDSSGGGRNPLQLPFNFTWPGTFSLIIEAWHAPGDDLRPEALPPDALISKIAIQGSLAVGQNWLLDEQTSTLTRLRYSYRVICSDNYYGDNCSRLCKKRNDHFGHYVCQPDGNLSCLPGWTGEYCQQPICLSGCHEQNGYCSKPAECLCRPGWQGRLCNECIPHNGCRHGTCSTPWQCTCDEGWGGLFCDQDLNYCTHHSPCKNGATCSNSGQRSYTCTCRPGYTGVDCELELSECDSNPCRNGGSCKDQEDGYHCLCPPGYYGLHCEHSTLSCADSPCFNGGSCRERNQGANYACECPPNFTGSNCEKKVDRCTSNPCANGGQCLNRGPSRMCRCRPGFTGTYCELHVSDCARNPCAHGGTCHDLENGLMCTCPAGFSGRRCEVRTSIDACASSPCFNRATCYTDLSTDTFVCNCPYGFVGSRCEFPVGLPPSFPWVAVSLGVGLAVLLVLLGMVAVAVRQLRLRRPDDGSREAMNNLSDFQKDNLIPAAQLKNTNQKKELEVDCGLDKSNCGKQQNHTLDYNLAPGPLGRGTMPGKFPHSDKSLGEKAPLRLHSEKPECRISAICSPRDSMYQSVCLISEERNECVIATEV

[5] = target: T2, recombinant extracellular domain …; assay: ELISA, coated cyno.DLL3-ECD-his 0.2 µg/mL, antibody titrated
[6] = target: T3, recombinant extracellular domain …; assay: BLI (ForteBio), antibody on ProA sensor, hDLL3-ECD-His in solution
[7] = target: T3, recombinant extracellular domain …; assay: ELISA, titrated antibody on plate-coated human DLL3, OD450nm

B1: 10F2F3-Hz antibody (antibody, human IgG1, kappa, V domains shown)
VH: QVQLVESGAEVKKPGSSVKVSCKASGYAFSSHWVNWVRQAPGQGLEWMGQIYPGNGDTNYAQKFQGRVTLTADKSTSTAYMELSSLTSEDTAVYFCARWFAYWGQGTLVTVSS
VL: DIQMTQSPSSLSASVGDRVTITCKSSQSLLDGGNQKNYLAWYQQKPGKPPKLLVYFASIRESGVPSRFSGSGSGTDFTLTISSLQPEDFATYYCQQHYNTPWTFGQGTKVEIKR
notes: Humanized
[1]
  binding result: no binding (tested: 20 µg/mL)
[2]
  Kd: 1.28 nM
  koff: 0.000122 s⁻¹
  kon: 95100 M⁻¹ s⁻¹
[3]
  EC50: 3.4 ng/mL
[4]
  binding result: no binding (tested: 20 µg/mL)
[5]
  EC50: 3.5 ng/mL
[6]
  Kd: 6.07 nM
  koff: 0.00045 s⁻¹
  kon: 74200 M⁻¹ s⁻¹

B2: DL301 (antibody, V domains shown)
VH: QVQLQQSGADLVRPGTSVKVSCKASGYAFTNYLIEWIKQRPGQGLEWIGVMNPGSGGTHYSEKFRGKATLTADKSSSTAYMQLISLTSDDSAVYFCARSDYDYVTYAMDYWGQGTSVTVSS
VL: DIKMTQSPSSMYASLGERVTITCKASQDINSYLIWFQQKPGKSPKTLIYRTNRLVDGVPSRFSGSGSGQDYSLTISSLEYGDMGIYYCLQYDEFPFTFGSGTKLEIK
[7]
  EC50 (read off the curve): ~4 ng/mL

B3: 87F7F10-Hz (antibody, human IgG1, kappa, V domains shown)
VH: QVQLQESGPGLVKPSETLSLTCTVSGYSITSDFYWNWIRQPPGKGLEWIGYITYDGSTNYNPSLKSRVTISRDTSKNQFSLKLSSVTAADTAVYYCVYGDFNRHAMDYWGQGTLVTVSS
VL: DIVMTQSPDSLAVSLGERATINCRSSQSLFNSRTRKNYLAWYQQKPGQPPKVLIYWASTRESGVPDRFSGSGSGTDFTLTISSLQAEDVAVYYCEQSFYLFTFGQGTKVEIKR
notes: Humanized; also called 87F7F10-hz1
[1]
  binding result: no binding (tested: 20 µg/mL)
[2]
  Kd: 2.41 nM
  koff: 8.84e-05 s⁻¹
  kon: 36700 M⁻¹ s⁻¹
[3]
  EC50: 3.8 ng/mL
[4]
  binding result: no binding (tested: 20 µg/mL)
[5]
  EC50: 3.3 ng/mL
[6]
  Kd: 8.57 nM
  koff: 0.000218 s⁻¹
  kon: 25400 M⁻¹ s⁻¹

B4: DL306 (antibody, V domains shown)
VH: EVQLQQSGPELVKPGASVKMSCRASGYTFTDYYMKWVKQSHGKSLEWIGDINPNNGDTFYNQKFKGKATLTIDKSSSTAYMQLNSLTSDDSAVYYCARDGNYAYFDYWGQGTTLTVSS
VL: DIVLTQSPASLAVSLGQRATISCRASKSVSTSGYSYMHWYQQKPGQPPKLLIFLASNLESGVPARFSGSGSGTDFTLNIHPVEEEDAATYYCQHSRHLPWTFGGGTKLEIK
[7]
  EC50 (read off the curve): ~5 ng/mL

B5: DL309 (antibody, V domains shown)
VH: QVQLQQSGGDLMKPGASVKISCKAAGYTFSNYYIEWVKQRPGHGLEWIGEILPGSGSTTYNEKFKGKASFTADTSSNTAYMQLSSLTSEDSAVYYCARWGAREPGFPYWGQGTLVTVSA
VL: DIVMTQSQKFMSTSVGDRVSVTCKASQNVGTNVAWYQQKPGQSPKALIYSASYRYSGVPDRFTGSGSGTDFTLTISNVQSEDLAEYFCQQYNNYPLTFGAGTKLELK
[7]
  EC50 (read off the curve): ~6 ng/mL

B6: 6F11C10-Hz1 antibody (antibody, human IgG1, kappa, V domains shown)
VH: EVQLVQSGAEVKKPGASVKVSCKASGFTFTDYYMHWVRQAPGQSLEWMGLVYPYNGDISYAQKFQGRVTLTVDTSISTAYMELSRLRSDDTAVYYCARQGNYVNNAIDYWGQGTLVTVSS
VL: DIQMTQSPSSLSASVGDRVTITCKASQNVGNIIAWYQQKPGKSPKALIYLASYRYSGVPSRFSGSGSGTDFTLTISSLQPEDVATYFCQQYSDSPYTFGQGTKVEIKR
notes: Humanized IgG1/kappa
[1]
  binding result: no binding (tested: 20 µg/mL)
[2]
  Kd: 0.873 nM
  koff: 0.000328 s⁻¹
  kon: 375000 M⁻¹ s⁻¹
[3]
  EC50: 4.7 ng/mL
[4]
  binding result: no binding (tested: 20 µg/mL)
[5]
  EC50: 5.4 ng/mL
[6]
  Kd: 0.243 nM
  koff: 4.27e-05 s⁻¹
  kon: 175000 M⁻¹ s⁻¹

B7: 55C11E4-Hz1 (antibody, human IgG1, kappa, V domains shown)
VH: EVQLVQSGAEVKKPGASVKVSCKASGYTFTDYYMNWVRQAPGQRLEWMGVINPYNGGTNYSQKFQGRVTLTVDKSASTAYMELSSLRSEDTAVYYCARDSNYVGLLDYWGQGTLVTVSS
VL: DIVLTQSPATLSLSPGERATLSCRASQSISNNLHWYQQKPGQAPRLLIKYASQSISGIPARFSGSGSGPDFTLTISSLEPEDFAVYFCQQSNSWPYTFGQGTKVEIKR
notes: Humanized IgG1/kappa
[1]
  binding result: no binding (tested: 20 µg/mL)
[2]
  Kd: 2.37 nM
  koff: 0.000479 s⁻¹
  kon: 202000 M⁻¹ s⁻¹
[3]
  EC50: 3.9 ng/mL
[4]
  binding result: no binding (tested: 20 µg/mL)
[5]
  EC50: 4.1 ng/mL
[6]
  Kd: 5.26 nM
  koff: 0.000652 s⁻¹
  kon: 124000 M⁻¹ s⁻¹

B8: DL312 (antibody, V domains shown)
VH: EVKLVESGGGLVQPGGSLSLSCAASGFTFTDYYMNWVRQPPGKALEWLALIRNKANGYTTEYNASVKGRFTISRDNSQNILYLQMNALRAEDSATYYCARDSDGYYEYYFDYWGQGTTLTVSS
VL: DIQMTQSPSSLSASLGERVSLTCRASQEISDYLSWLQQKPDGTIKRLIFAASTLDSGVPKRFSGSRSGSDFSLSISSLESEDFADYYCLQYASYPYTFGSGTKLEIK
[7]
  EC50 (read off the curve): ~5 ng/mL

B9: 59B10D3-Hz antibody (antibody, human IgG1, kappa, V domains shown)
VH: EVQLVESGGGLVQPGGSLRLSCAASGFTFSDAWMDWVRQAPGKGLEWVAEIRNKANNHATYYVDSVKGRFTISRDDAKNSVYLQMNSLRAEDTAVYYCTRNNYGSTWTYYAMDYWGQGTLVTVSS
VL: DIQMTQSPSSLSASVGDRVTITCRASQDISNYLNWYQQKPGKAVKLLIYYTSRLHSGVPSRFSGSGSGTDYTLTISSLQPEDFATYYCQQGYTLPLTFGQGTKVEIKR
notes: Humanized; also called 59B10D3-hz1
[1]
  binding result: no binding (tested: 20 µg/mL)
[2]
  Kd: 9.08 nM
  koff: 0.000908 s⁻¹
  kon: 100000 M⁻¹ s⁻¹
[3]
  EC50: 5.2 ng/mL
[4]
  binding result: no binding (tested: 20 µg/mL)
[5]
  EC50: 6.3 ng/mL
[6]
  Kd: 14 nM
  koff: 0.0017 s⁻¹
  kon: 122000 M⁻¹ s⁻¹

— patent publication US20260166168A1 (MEDILINK THERAPEUTICS SUZHOU, published 2026)
